Experimental data as given in patent publication US20230088269A1 (ARGENX BVBA, published 2023).
Substitutions are numbered along the chain they refer to. In names and notes the source's numbering stands.

Legend:
[1] = molecular target: T1, human IL-22R expressed on cells (BW-hIL22R, Baf3-hIL22R/IL20Rb, transfected HEK, primary human skin cells) (human, UniProt Q8N6P7 16-574); assay: cell-based or functional assay
T1 sequence: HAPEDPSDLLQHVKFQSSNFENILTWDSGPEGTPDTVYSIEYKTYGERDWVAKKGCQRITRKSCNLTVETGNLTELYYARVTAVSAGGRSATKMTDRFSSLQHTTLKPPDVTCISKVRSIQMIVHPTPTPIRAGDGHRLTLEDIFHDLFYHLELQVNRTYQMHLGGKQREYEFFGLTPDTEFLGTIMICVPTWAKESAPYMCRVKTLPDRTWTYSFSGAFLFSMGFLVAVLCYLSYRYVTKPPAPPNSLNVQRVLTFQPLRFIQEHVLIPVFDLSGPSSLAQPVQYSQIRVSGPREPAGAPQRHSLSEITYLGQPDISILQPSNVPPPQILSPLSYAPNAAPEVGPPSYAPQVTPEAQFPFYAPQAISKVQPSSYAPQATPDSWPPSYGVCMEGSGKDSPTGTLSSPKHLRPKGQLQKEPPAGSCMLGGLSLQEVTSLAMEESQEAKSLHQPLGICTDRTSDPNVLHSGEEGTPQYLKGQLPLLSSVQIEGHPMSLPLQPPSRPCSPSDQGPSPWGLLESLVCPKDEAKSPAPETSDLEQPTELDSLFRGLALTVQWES

[2] = molecular target: T1, human IL-22R expressed on cells …; assay: cell-based or functional assay; remark: listed apart in the source
[3] = molecular target: T2, recombinant mouse IL22R (monomeric, R&D Systems cat 4248-MR) (mouse, UniProt Q80XZ4 16-230); assay: summary table of cross-reactivity, mAb, column m = mouse
T2 construct: extracellular domain; also called murine IL-22R; mIL22R
T2 sequence (looked up): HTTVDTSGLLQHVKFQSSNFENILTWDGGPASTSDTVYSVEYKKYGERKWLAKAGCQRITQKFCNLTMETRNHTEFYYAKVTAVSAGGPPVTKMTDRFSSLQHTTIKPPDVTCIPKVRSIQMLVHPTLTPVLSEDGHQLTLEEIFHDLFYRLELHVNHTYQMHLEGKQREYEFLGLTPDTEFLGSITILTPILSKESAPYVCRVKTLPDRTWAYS

[4] = molecular target: rhesus IL22R ECD - human TM - human ICD chimera on transfected HEK cells (rhesus monkey; human, UniProt Q8N6P7 229-574); assay: cell-based or functional assay
[5] = molecular target: T1, human IL-22R expressed on cells …; assay: cell-based or functional assay; remark: listed apart in the source
[6] = molecular target: cynoIL22R_ECD-humanTM_humanICD chimera on transfected cells (cynomolgus monkey; human, UniProt Q8N6P7 229-574); assay: cell-based or functional assay
[7] = molecular target: T1, human IL-22R expressed on cells …; assay: cell-based or functional assay; remark: listed apart in the source
[8] = molecular target: T1, human IL-22R expressed on cells …; assay: cell-based or functional assay; remark: listed apart in the source
[9] = molecular target: T3, cynomolgus monkey IL-22R in ex vivo skin biopsies (cynomolgus monkey, UniProt A0A2K5TKX9 16-573); assay: cell-based or functional assay
T3 sequence: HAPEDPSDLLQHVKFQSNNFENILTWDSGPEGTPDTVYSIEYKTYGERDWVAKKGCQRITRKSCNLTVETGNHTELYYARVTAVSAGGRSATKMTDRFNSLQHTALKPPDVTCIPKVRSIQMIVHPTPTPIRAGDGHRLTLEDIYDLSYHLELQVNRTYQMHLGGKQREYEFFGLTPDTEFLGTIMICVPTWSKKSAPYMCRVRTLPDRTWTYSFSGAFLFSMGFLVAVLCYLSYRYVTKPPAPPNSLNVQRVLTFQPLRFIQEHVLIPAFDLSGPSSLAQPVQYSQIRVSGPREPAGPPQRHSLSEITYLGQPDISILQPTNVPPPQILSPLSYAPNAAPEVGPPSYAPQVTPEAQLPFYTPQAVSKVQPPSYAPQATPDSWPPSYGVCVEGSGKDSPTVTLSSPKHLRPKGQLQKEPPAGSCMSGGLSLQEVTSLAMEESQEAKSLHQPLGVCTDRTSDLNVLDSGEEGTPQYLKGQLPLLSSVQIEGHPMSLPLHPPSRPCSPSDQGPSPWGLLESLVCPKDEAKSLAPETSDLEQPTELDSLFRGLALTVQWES

[10] = molecular target: T4, recombinant human IL-22R (R&D Systems / Biotechne 2770-LR) (human, UniProt Q8N6P7 16-228); assay: SPR (Biacore), hIL22R on CM5 chip, mAb injected, 1:1 Langmuir
T4 construct: Bought soluble recombinant protein (said to be 25 kDa); also called hIL22R; IL-22R1
T4 sequence: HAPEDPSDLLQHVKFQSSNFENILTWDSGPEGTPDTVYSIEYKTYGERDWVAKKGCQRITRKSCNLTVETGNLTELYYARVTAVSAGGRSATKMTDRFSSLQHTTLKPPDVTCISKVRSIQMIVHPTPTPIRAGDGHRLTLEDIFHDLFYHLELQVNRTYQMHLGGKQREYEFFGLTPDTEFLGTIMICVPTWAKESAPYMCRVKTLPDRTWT
Method: (§1) The affinity of the 230C9 and 223G5 antibodies was measured using SPR ([…]). In brief, 250RU of human IL22R (Biotechne, 2770-LR) was coated onto a CM5 chip using standard methods (EDC coupling of IL22R at a concentration of 2 μg/ml in acetate buffer pH4.5). Then various concentrations of antibody were injected in HBSEP+ buffer (pH 7.4) for 2 minutes. The binding was monitored also during a 10 min washing (HBSEP+).

[11] = molecular target: T4, recombinant human IL-22R (R&D Systems / …); assay: SPR (Biacore), mAb on chip, monomeric hIL22R injected, 1:1 Langmuir
Method: Because of the potential avidity effect observed when a bivalent molecule is used as a ligand during affinity measurement, a reverse experimental setup was tested. In this set-up, the antibodies were coated to 250RU using standard methods. Monomeric human IL22R was added at different concentrations, and the affinities calculated using the BIAevaluation software using a Langmuir 1:1 fitting are shown in Table 21 below.

[12] = molecular target: T4, recombinant human IL-22R (R&D Systems / …); assay: off-rate of Fab fragment; method not stated; Fab fragment; human IL-22R1
[13] = molecular target: T5, rhIL22R-Fc (rhesus IL22R ECD fused to human Fc) (rhesus monkey, UniProt G7MHN4 16-228); assay: off-rate of Fab fragment; method not stated
T5 construct: also called rhesus IL-22R1
T5 sequence: T4 sequence with S18N, L73H, S99N, T105A, S115P, K167E, A194S, E196K, K205R

[14] = molecular target: T2, recombinant mouse IL22R (monomeric, R&D …); assay: SPR (Biacore), purified Fab
[15] = molecular target: T4, recombinant human IL-22R (R&D Systems / …); assay: SPR (Biacore), purified Fab
[16] = molecular target: T6, human IL-22R A209D mutant on BW cells (human, UniProt Q8N6P7 16-574); assay: FACS, BW-hIL-22R mutant cells
T6 sequence: T1 sequence with A194D
Method: The binding of IL22R antibodies and of the benchmark antibody (280.346.TSY) to BW cells over-expressing various IL22R mutants was tested. The IL22R mutants have mutations of amino acids known to be involved in the IL-22/IL22R interaction. In this setup, the antibodies were biotinylated, added to the cells and binding of the antibody to IL22R was detected with labeled streptavidin by Flow cytometry (FACS).
FACS analysis was also carried out as described in Example 8.2 to study the binding of the germlined antibodies to various IL-22R mutants.

[17] = molecular target: T4, recombinant human IL-22R (R&D Systems / …); assay: SPR (Biacore), hIL22R on CM5 chip, mAb injected; rounded range told of 223G5 and 224C4
Method: as §1

B1: 218A7 mAb (antibody, V domains shown)
VH: QVQLVESGGGLVQPGGSLRLSCAASGFTFSSYDMSWVRQAPGKGLEWVSSIYNDGSNTAYSDSVKGRFTISRDNAKNTLYLQMNSLKSEDTAVYYCAKVGFSGTYYSESWGQGTQVTVSS
VL: LPVLTQPSAVSVSLGQTARITCQGGYYAHWYQQKPGQAPVLVIYGQNNRPSGIPERFSGSGAGNTATLTISGAQAEDEAEYYCQSGSSSANAVFGGGTKLTVL
notes: VH family 4; light chain shuffled variant of 157A2, not germlined
IC50 blocking IL-22 (nM), BWhIL22R cell line [1]: 0.28 nM | Relative potency to 280.346.TSY (IL-22, BWhIL22R cell line) [1]: 2.5 fold | IC50 blocking IL-22 (pM), BW hIL22R proliferation [2]: 360 pM | binding result [3]: no binding

B2: 230C9 mAb (antibody, human IgG1, lambda, N297Q, V domains shown)
VH: B1 VH with S35N, G55A, A75S, K87R, S88A, Q115L
VL: SYELTQPSSVSVALGQTARITCQGGYYAHWYQQKPGQAPVLVIYGQNNRPSGIPERFSGSGAGNTATLTISRAQAEDEADYYCQSGSSSSNAVFGGGTKLTVLG
notes: Germlined variant of 218A7; also called 230C9-N297Q; 230C9 N297Q
EC50 (nM), STAT3-reporter in HEK cells after human IL22, Rhesus ECD [4]: 0.48 nM | EC50 (nM), STAT3-reporter in HEK cells after human IL22, Human ECD [5]: 0.28 nM | EC50 (nM), STAT3-reporter in HEK cells after human IL22, Cyno ECD [6]: 0.57 nM | IC50 blocking IL-22 (nM), BWhIL22R cell line [1]: 0.56 nM | Relative potency to 280.346.TSY (IL-22, BWhIL22R cell line) [1]: 1.2 fold | IC50 blocking IL-20 (nM), Baf3hIL22R/IL20Rb cell line; batch #1 [7]: 0.781 nM | IC50 blocking IL-20 (nM), Baf3hIL22R/IL20Rb cell line; batch #2 [7]: 0.567 nM | Relative potency to 280.346.TSY (IL-20); batch #1 [7]: 1.9 fold | Relative potency to 280.346.TSY (IL-20); batch #2 [7]: 2.6 fold | EC50, inhibition of CCL2 levels in primary human keratinocytes stimulated with IL-4, IL-13, IL-22 and IFN-gamma [8]: 0.1 nM | EC50, reduction of rhIL-22 induced DEFB4 mRNA in human ex vivo skin explants [8]: 4 nM | EC50, block of rhIL-22 down-regulation of FLG2 and LOR mRNA in cynomolgus skin biopsies [9]: 11 nM | Kd [10]: 0.13 nM | koff [10]: 8.9e-05 s⁻¹ | kon [10]: 680000 M⁻¹ s⁻¹ | Kd [11]: 0.22 nM | koff [11]: 0.00022 s⁻¹ | kon [11]: 920000 M⁻¹ s⁻¹

B3: 166G8 Fab (Fab, V domains shown)
VH: QVQLVESGGGLVQPGDSLRLSCAASGFTFGSYFMSWVRQAPGKGPEWVSGIHISGGITYYLDSVKGRFTISRDNAKNTLYLQMNNLKPEDTAVYYCVTPPGPFKAHYNGMKYWGKGTLVTVSS
VL: NFMLTQPPSVSGTLGKTVTISCTGTSRDIGDYNYVSWYQQLPGLAPKLLIYKVNTRSSGTPDRFSGSKSGNTASLTISGLQSEDEADYYCASYRLYADYVFGGGTHLTVL
notes: VH family 5; purified llama Fab
koff [12]: 0.00122 s⁻¹ | koff [13]: 0.0222 s⁻¹ | binding result [14]: no binding | koff [15]: 0.00088 s⁻¹

B4: 223G5 mAb (antibody, human IgG1, lambda, N297Q, V domains shown)
VH: B3 VH with D16G, G30S, L61T, N85S, K87R, P88A, M110A
VL: QSALTQPPSVSGSPGQSVTISCTGTSSDIGSYNYVSWYQQLPGKAPKLLIYEVNKRSSGVPDRFSGSKSGNTASLTISGLQAEDEADYYCASYRLYADYVFGGGTQLTVLG
notes: Germlined variant of 166G8; also called 223G5-N297Q
binding result [16]: no binding | Kd [10]: 0.016 nM | koff [10]: 0.0001 s⁻¹ | kon [10]: 6.6e+06 M⁻¹ s⁻¹ | Kd [17]: 0.01 to 0.02 nM
